Measurements: PMC4990422, “Coupling between the DEAD-box RNA helicases Ded1p and eIF4A” (eLife, 2016)

What was measured:
eIF4G [1] = target: T1, eIF4G (S. cerevisiae, UniProt P39935 1-952; P07260 1-213); assay: global fit of RNA unwinding time courses to a thermodynamic model; K1/2 of a binding step calculated with the model of Figure 4A; RNA bound to the target before the step, no ATP; details: both partners purified
T1 construct: eIF4G1, scaffolding protein of translation initiation, S. cerevisiae; present in the preparations of eIF4G; the model treats G as one unit; also called eIF4G1; S•Tag-eIF4G; source: recombinant, expression and purification previously described (Hilliker et al., 2011)
T1 sequence (looked up) 1: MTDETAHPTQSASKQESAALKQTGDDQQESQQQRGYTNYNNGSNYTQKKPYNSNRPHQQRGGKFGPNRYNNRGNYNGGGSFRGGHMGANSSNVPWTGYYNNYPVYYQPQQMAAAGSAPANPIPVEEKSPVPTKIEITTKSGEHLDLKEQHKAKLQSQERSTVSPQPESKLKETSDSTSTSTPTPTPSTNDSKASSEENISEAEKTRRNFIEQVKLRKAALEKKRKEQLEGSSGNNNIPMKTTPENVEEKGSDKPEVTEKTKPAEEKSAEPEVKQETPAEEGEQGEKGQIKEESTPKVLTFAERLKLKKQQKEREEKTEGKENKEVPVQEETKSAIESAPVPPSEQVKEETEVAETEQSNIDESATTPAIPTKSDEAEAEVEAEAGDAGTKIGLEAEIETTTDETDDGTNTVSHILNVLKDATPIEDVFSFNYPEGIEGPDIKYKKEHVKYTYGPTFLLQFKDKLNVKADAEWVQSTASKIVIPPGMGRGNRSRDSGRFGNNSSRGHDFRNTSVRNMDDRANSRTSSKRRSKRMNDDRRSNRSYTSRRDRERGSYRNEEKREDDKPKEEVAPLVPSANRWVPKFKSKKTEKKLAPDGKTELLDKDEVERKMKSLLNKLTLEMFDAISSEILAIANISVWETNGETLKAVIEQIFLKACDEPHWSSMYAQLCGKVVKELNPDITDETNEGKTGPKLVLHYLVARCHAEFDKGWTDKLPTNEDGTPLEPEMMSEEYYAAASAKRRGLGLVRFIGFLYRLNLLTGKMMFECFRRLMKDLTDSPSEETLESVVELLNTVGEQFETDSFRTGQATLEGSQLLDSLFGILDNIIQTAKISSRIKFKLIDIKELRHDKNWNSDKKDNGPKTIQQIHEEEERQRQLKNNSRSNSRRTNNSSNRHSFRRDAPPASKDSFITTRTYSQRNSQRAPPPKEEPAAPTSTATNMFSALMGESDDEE
T1 sequence (looked up) 2: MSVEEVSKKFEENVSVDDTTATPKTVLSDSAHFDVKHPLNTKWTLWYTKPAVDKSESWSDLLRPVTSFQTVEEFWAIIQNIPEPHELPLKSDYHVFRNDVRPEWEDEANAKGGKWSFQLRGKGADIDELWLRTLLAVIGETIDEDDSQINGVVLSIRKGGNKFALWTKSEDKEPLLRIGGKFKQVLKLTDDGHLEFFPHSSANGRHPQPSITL

Ded1p-eIF4G complex [2] = target: T2, Ded1p-eIF4G complex (S. cerevisiae, UniProt P06634 1-604; P39935 1-952; P07260 1-213); assay: as above; details: both partners purified
T2 construct: Ded1p, S. cerevisiae, wild type, as Wm1; eIF4G1, S. cerevisiae, as in Wm3; eIF4E, S. cerevisiae, as in Wm3; present in the preparations of eIF4G; State of the thermodynamic model; also called DG; DTG; source: formed from the purified recombinant proteins; copies: + +

eIF4G [3] = target: T1, eIF4G; assay: global fit of RNA unwinding time courses to a thermodynamic model; K1/2 of a binding step calculated with the model of Figure 4A; RNA bound to the target before the step, ATP bound to eIF4A; details: both partners purified
Ded1p-eIF4G complex [4] = target: T2, Ded1p-eIF4G complex; assay: as above; details: both partners purified
[5] = target: HA-tagged Ded1p (His6-Ded1p-HA3) (S. cerevisiae), P06634; assay: pull-down; Ded1p-HA held on anti-HA antibody and Protein G Dynabeads; 300 nM S•Tag-eIF4G or 1500 nM eIF4A added alone; 20 µg/mL RNases A,B; 8°C overnight; washed with HRB-Na100 buffer; Western blot; details: remark: other sources report otherwise
Ded1p-eIF4G complex [6] = target: T2, Ded1p-eIF4G complex; assay: global fit of RNA unwinding time courses to a thermodynamic model; K1/2 of a binding step calculated with the model of Figure 4A; RNA bound to the binder before the step, ATP bound to Ded1p and to eIF4A; details: both partners purified

T2 sequence (P06634 whole entry, one chain of several): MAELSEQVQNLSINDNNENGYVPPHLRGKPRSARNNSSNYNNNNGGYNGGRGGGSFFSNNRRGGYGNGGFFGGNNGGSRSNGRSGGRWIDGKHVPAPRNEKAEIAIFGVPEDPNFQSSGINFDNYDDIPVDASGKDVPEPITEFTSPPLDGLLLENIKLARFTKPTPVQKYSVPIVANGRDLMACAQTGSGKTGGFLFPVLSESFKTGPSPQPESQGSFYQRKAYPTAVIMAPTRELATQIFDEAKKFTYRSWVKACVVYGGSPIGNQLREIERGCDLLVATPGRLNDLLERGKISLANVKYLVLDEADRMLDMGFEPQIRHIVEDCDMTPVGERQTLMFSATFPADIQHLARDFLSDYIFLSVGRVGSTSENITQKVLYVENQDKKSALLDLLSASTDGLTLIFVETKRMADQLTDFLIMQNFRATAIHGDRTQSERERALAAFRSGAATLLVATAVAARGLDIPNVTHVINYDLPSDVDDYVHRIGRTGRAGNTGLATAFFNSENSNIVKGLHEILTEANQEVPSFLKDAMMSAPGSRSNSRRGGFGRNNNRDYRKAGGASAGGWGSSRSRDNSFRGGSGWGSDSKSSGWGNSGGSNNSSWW
Sequence of HA-tagged Ded1p (His6-Ded1p-HA3) (S. cerevisiae), P06634 (P06634 whole entry): as the sequence (P06634 whole entry, one chain of several) above

B1: eIF4A (enzyme, S. cerevisiae, UniProt P10081 1-395, looked up)
chain: MSEGITDIEESQIQTNYDKVVYKFDDMELDENLLRGVFGYGFEEPSAIQQRAIMPIIEGHDVLAQAQSGTGKTGTFSIAALQRIDTSVKAPQALMLAPTRELALQIQKVVMALAFHMDIKVHACIGGTSFVEDAEGLRDAQIVVGTPGRVFDNIQRRRFRTDKIKMFILDEADEMLSSGFKEQIYQIFTLLPPTTQVVLLSATMPNDVLEVTTKFMRNPVRILVKKDELTLEGIKQFYVNVEEEEYKYECLTDLYDSISVTQAVIFCNTRRKVEELTTKLRNDKFTVSAIYSDLPQQERDTIMKEFRSGSSRILISTDLLARGIDVQQVSLVINYDLPANKENYIHRIGRGGRFGRKGVAINFVTNEDVGAMRELEKFYSTQIEELPSDIATLLN
notes: eIF4A, DEAD-box RNA helicase, S. cerevisiae, wild type; also called wild-type yeast eIF4A; source: recombinant, purified as described (Hilliker et al., 2011)
eIF4G [1]
  Kd: 1060 nM
Ded1p-eIF4G complex [2]
  Kd: 7 nM
eIF4G [3]
  Kd: 2100 nM
Ded1p-eIF4G complex [4]
  Kd: 14 nM
[5]
  relative band intensity (pull-down compared to input): 96%
Ded1p-eIF4G complex [6]
  Kd: 0.013 nM
